Source: paper PMC12399193 (Acta Pharmaceutica Sinica. B, 2025)

Columns and labels:
[1] = biological target: T1, AVI-tagged DOK3(1–330 aa) (UniProt Q7L591 1-330); test: BLI
T1 sequence (looked up): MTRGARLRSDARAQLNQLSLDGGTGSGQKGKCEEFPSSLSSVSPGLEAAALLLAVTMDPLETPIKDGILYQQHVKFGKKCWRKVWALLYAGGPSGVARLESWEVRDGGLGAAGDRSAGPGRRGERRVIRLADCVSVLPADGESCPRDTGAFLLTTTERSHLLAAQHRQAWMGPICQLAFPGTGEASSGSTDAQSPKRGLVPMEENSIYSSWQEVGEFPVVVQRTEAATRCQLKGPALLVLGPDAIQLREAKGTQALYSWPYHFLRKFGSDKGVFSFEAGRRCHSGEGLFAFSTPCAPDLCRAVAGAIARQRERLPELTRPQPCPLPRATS

[2] = biological target: T1, AVI-tagged DOK3(1–330 aa); test: BLI; remark: listed apart in the source

B1: His-PRDX1 recombinant protein (WT, 1-199 aa) (natural protein, UniProt Q06830 1-199, looked up)
chain: MSSGNAKIGHPAPNFKATAVMPDGQFKDISLSDYKGKYVVFFFYPLDFTFVCPTEIIAFSDRAEEFKKLNCQVIGASVDSHFCHLAWVNTPKKQGGLGPMNIPLVSDPKRTIAQDYGVLKADEGISFRGLFIIDDKGILRQITVNDLPVGRSVDETLRLVQAFQFTDKHGEVCPAGWKPGSDTIKPDVQKSKEYFSKQK
- Kd [1]: 15.5 µM
- KD with SAB [2]: 1.77 µM
